# According to patent publication US12186374B2 (Sanofi-Aventis Deutschland GmbH, priority 2014, dated 2025):
# How the values were obtained:
# [1] = tested on: patients with T2DM; assay: Treatment-emergent adverse events incl. serious, fatal, leading to discontinuation (Example 3); conditions: Safety population
# [2] = tested on: patients with Type 2 diabetes mellitus (T2DM); assay: Pancreatic events adjudicated by PSAC (Example 2)
# [3] = tested on: patients with T2DM; assay: Pen-related event questionnaire (Example 3); conditions: on-treatment period
# [4] = on-treatment period, Safety population
substance,measurement,setting,value
Gly(A21)-Arg(B31)-Arg(B32)-human insulin [Insulin Glargine],Number of patients experiencing serious TEAE(s): Cardiopulmonary failure,[1]; PT,1
same,Number of patients experiencing serious TEAE(s): Chest discomfort,[1]; PT,1
same,Number of patients experiencing serious TEAE(s): Cholecystitis acute,[1]; PT,1
same,Number of patients experiencing serious TEAE(s): Cholecystitis chronic,[1]; PT,0
same,Number of patients experiencing serious TEAE(s): Gallbladder cancer,[1]; PT,1
same,Number of patients experiencing serious TEAE(s): Glaucoma,[1]; PT,1
same,Number of patients experiencing serious TEAE(s): Hypertension,[1]; PT,1
same,Number of patients experiencing serious TEAE(s): Hypoglycaemia,[1]; PT,1
same,Number of patients experiencing serious TEAE(s): Hypoglycaemic seizure,[1]; PT,0
same,Number of patients experiencing serious TEAE(s): Hypoglycaemic unconsciousness,[1]; PT,0
same,Number of patients experiencing serious TEAE(s): Intervertebral disc protrusion,[1]; PT,1
same,Number of patients experiencing serious TEAE(s): Kaposi’s sarcoma,[1]; PT,1
same,Number of patients experiencing serious TEAE(s): Meniscus injury,[1]; PT,1
same,Number of patients experiencing serious TEAE(s): Myocardial infarction,[1]; PT,0
same,Number of patients experiencing serious TEAE(s): Non-cardiac chest pain,[1]; PT,2
same,Number of patients experiencing serious TEAE(s): Osteoarthritis,[1]; PT,0
same,Number of patients experiencing serious TEAE(s): Osteomyelitis,[1]; PT,1
same,Number of patients experiencing serious TEAE(s): Pneumonia,[1]; PT,1
same,Number of patients experiencing serious TEAE(s): Renal impairment,[1]; PT,1
same,Number of patients experiencing serious TEAE(s): Scar,[1]; PT,0
same,Number of patients experiencing serious TEAE(s): Squamous cell carcinoma of the tongue,[1]; PT,0
same,Number of patients experiencing serious TEAE(s): Subdural haematoma,[1]; PT,0
same,Number of patients experiencing serious TEAE(s): Supraventricular tachycardia,[1]; PT,0
same,Number of patients experiencing serious TEAE(s): Tendonitis,[1]; PT,0
same,Number of patients experiencing serious TEAE(s): Wound infection,[1]; PT,1
same,% of patients experiencing TEAE(s) leading to permanent treatment discontinuation: Cardiac disorders,[1]; SOC,(0.3%)
same,"% of patients experiencing TEAE(s) leading to permanent treatment discontinuation: Neoplasms benign, malignant and unspecified (incl cysts and polyps)",[1]; SOC,(0.3%)
same,"% of patients experiencing TEAE(s) leading to permanent treatment discontinuation: Pregnancy, puerperium and perinatal conditions",[1]; SOC,(0.3%)
same,% of patients experiencing serious TEAE(s): Cardiac disorders,[1]; SOC,(0.5%)
same,% of patients experiencing serious TEAE(s): Eye disorders,[1]; SOC,(0.3%)
same,% of patients experiencing serious TEAE(s): General disorders and administration site conditions,[1]; SOC,(0.8%)
same,% of patients experiencing serious TEAE(s): Hepatobiliary disorders,[1]; SOC,(0.3%)
same,% of patients experiencing serious TEAE(s): Infections and infestations,[1]; SOC,(0.8%)
same,"% of patients experiencing serious TEAE(s): Injury, poisoning and procedural complications",[1]; SOC,(0.3%)
same,% of patients experiencing serious TEAE(s): Metabolism and nutrition disorders,[1]; SOC,(0.3%)
same,% of patients experiencing serious TEAE(s): Musculoskeletal and connective tissue disorders,[1]; SOC,(0.3%)
same,"% of patients experiencing serious TEAE(s): Neoplasms benign, malignant and unspecified (incl cysts and polyps)",[1]; SOC,(0.5%)
same,% of patients experiencing serious TEAE(s): Renal and urinary disorders,[1]; SOC,(0.3%)
same,% of patients experiencing serious TEAE(s): Reproductive system and breast disorders,[1]; SOC,(0.3%)
same,% of patients experiencing serious TEAE(s): Vascular disorders,[1]; SOC,(0.3%)
same,Number of patients experiencing TEAE(s) leading to permanent treatment discontinuation: Cardiac disorders,[1]; SOC,1
same,Number of patients experiencing TEAE(s) leading to permanent treatment discontinuation: Gastrointestinal disorders,[1]; SOC,0
same,Number of patients experiencing TEAE(s) leading to permanent treatment discontinuation: Infections and infestations,[1]; SOC,0
same,Number of patients experiencing TEAE(s) leading to permanent treatment discontinuation: Investigations,[1]; SOC,0
same,"Number of patients experiencing TEAE(s) leading to permanent treatment discontinuation: Neoplasms benign, malignant and unspecified (incl cysts and polyps)",[1]; SOC,1
same,Number of patients experiencing TEAE(s) leading to permanent treatment discontinuation: Nervous system disorders,[1]; SOC,0
same,"Number of patients experiencing TEAE(s) leading to permanent treatment discontinuation: Pregnancy, puerperium and perinatal conditions",[1]; SOC,1
same,Number of patients experiencing serious TEAE(s): Cardiac disorders,[1]; SOC,2
same,Number of patients experiencing serious TEAE(s): Eye disorders,[1]; SOC,1
same,Number of patients experiencing serious TEAE(s): General disorders and administration site conditions,[1]; SOC,3
same,Number of patients experiencing serious TEAE(s): Hepatobiliary disorders,[1]; SOC,1
same,Number of patients experiencing serious TEAE(s): Infections and infestations,[1]; SOC,3
same,"Number of patients experiencing serious TEAE(s): Injury, poisoning and procedural complications",[1]; SOC,1
same,Number of patients experiencing serious TEAE(s): Metabolism and nutrition disorders,[1]; SOC,1
same,Number of patients experiencing serious TEAE(s): Musculoskeletal and connective tissue disorders,[1]; SOC,1
same,"Number of patients experiencing serious TEAE(s): Neoplasms benign, malignant and unspecified (incl cysts and polyps)",[1]; SOC,2
same,Number of patients experiencing serious TEAE(s): Nervous system disorders,[1]; SOC,0
same,Number of patients experiencing serious TEAE(s): Renal and urinary disorders,[1]; SOC,1
same,Number of patients experiencing serious TEAE(s): Reproductive system and breast disorders,[1]; SOC,1
same,Number of patients experiencing serious TEAE(s): Vascular disorders,[1]; SOC,1
same,% of patients experiencing TEAE(s) leading to permanent treatment discontinuation: Any TEAE leading to permanent treatment discontinuation,[1],(0.8%)
same,% of patients experiencing serious TEAE(s): Any serious TEAE,[1],(4.9%)
same,Number of patients experiencing TEAE(s) leading to permanent treatment discontinuation: Any TEAE leading to permanent treatment discontinuation,[1],3
same,Number of patients experiencing serious TEAE(s): Any serious TEAE,[1],18
same,"Patients with any TEAE, number",[1],191 n
same,"Patients with any TEAE, percentage",[1],(52.3%)
same,Cases of pancreatic cancer,[2]; Example 2,One
same,Pancreatic events positively adjudicated by PSAC: Acute on chronic pancreatitis,[2]; [4],0 Number (%)
same,Pancreatic events positively adjudicated by PSAC: Acute pancreatitis,[2]; [4],0 Number (%)
same,Pancreatic events positively adjudicated by PSAC: Chronic pancreatitis,[2]; [4],0 Number (%)
same,Pancreatic events positively adjudicated by PSAC: Unknown pancreatitis,[2]; [4],0 Number (%)
same,Patients with pancreatic events positively adjudicated by PSAC: Any with “Yes” for pancreatitis by PSAC,[2]; [4],0 Number (%)
same,"Patients reporting pen-related events, %",[3]; Example 3,4.1%
same,"Patients reporting pen-related events, number",[3]; Example 3,15 patients
same,% of patients with events reported in pen-related event questionnaire: Any pen-related events,[3]; Safety population,4.1%
same,% of patients with events reported in pen-related event questionnaire: Not associated with a clinical event,[3]; Safety population,4.1%
same,Number of patients with events reported in pen-related event questionnaire: Any pen-related events,[3]; Safety population,15
same,Number of patients with events reported in pen-related event questionnaire: Associated with a clinical event,[3]; Safety population,0
same,Number of patients with events reported in pen-related event questionnaire: Not associated with a clinical event,[3]; Safety population,15
